From article PMC6430795, “Complex formation of APP with GABAB receptors links axonal trafficking to amyloidogenic processing” (Nature Communications, 2019)

T1: AJAP-1 on tsA201 cells (UniProt A2ALI5 44-412)
T1 construct: adherens junction-associated protein 1; cDNA from Source BioScience in pcDNA3; source: tsA201 cells, transfected, on cells
T1 sequence (looked up): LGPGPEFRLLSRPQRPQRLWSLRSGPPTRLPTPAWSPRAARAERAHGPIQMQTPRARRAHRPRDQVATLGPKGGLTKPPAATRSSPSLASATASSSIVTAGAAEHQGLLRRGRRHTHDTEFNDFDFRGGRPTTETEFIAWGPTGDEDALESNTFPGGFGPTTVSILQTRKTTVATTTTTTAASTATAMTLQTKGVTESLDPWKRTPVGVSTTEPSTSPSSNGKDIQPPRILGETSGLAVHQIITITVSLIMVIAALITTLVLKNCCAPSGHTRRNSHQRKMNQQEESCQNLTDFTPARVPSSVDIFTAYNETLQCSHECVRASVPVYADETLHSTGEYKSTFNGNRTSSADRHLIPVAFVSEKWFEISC

T2: HA-PIANP on tsA201 cells (UniProt Q6P1B3 28-278)
T2 construct: PILRα-associated neural protein; cDNA from OriGene in pCMV6 with an HA-tag insertion after amino acid 27; source: tsA201 cells, transfected, on cells; not shown: HA, internal (after residue 27), kept
T2 sequence (looked up): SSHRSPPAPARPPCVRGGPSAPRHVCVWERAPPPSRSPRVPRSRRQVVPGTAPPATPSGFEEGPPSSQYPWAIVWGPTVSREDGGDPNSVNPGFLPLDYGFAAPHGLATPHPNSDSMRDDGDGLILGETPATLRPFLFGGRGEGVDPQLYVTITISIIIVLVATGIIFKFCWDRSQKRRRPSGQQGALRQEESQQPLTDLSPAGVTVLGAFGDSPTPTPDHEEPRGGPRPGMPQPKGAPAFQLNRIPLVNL


Experiments:
[1] = target: Myc-GB1a (UniProt Q9Z0U4)
[2] = target: T1, AJAP-1 on tsA201 cells; assay: immunostaining of cells or tissue; cell surface binding: transfected tsA201 cells incubated 30 min at room temperature with 0.2 to 2000 nM purified Myc-SD1/2 in OptiMEM, fixed, bound SD1/2 stained with anti-c-Myc and put into ratio with the expressed protein; apparent KD from a Hill equation with a coefficient of 1; settings: one partner purified
[3] = target: T3, APP on tsA201 cells (UniProt P05067-4 18-695); assay: as above; settings: one partner purified
T3 construct: expression was read with goat anti-APP; source: tsA201 cells, transfected, on cells

[4] = target: T2, HA-PIANP on tsA201 cells; assay: as above; settings: one partner purified

reduction of BACE1-mediated Aβ40 secretion into the medium of HEK293 cells in the presence of GB1a/2 receptors, ELISA 32 h post-transfection [1] [%]	reduction of the APP-βCTF/APP-FL ratio (BACE1 cleavage of APP) in HEK293 cells in the presence of GB1a/2 receptors, immunoblot densitometry [1] [%]	reduction of the sAPPβ/APP-FL ratio (BACE1 cleavage of APP) in HEK293 cells in the presence of GB1a/2 receptors, immunoblot densitometry [1] [%]	Kd [2] [µM]	Kd [3] [µM]	Kd [4] [µM]	Molecule
77	60	57				APP (APP695, pCAX-APP695) (from UniProt P05067-4 18-695) (natural protein)
			0.0064	0.188	0.0291	recombinant SD1/2 protein (sushi domains 1 and 2 of GB1a) (domain or fragment, UniProt Q9Z0U4 20-158, looked up, the two N-terminal sushi domains (SD1 and SD2) of the GABAB receptor subunit GB1a; the NMR samples are called unlabeled recombinant SD1/2; also called Myc-SD1/2; Myc-SDI/II) QTPNATSEGCQIIHPPWEGGIRYRGLTRDQVKAINFLPVDYEIEYVCRGEREVVGPKVRKCLANGSWTDMDTPSRCVRICSKSYLTLENGKVFLTGGDLPALDGARVEFRCDPDFHLVGSSRSVCSQGQWSTPKPHCQV
